In the DeepSol protein solubility set:

Test: soluble on expression in E. coli; label from the status in PepcDB or PDB records

Soluble on expression in E. coli, soluble:
GMSDPRTQPLEIRPLMISRVMEVDWADGHTSRLTFEHLRVECPCAECKGHTPDQAQIVTGKEHVSVVEVVPVGHYAVQLHFSDGHNTGIFTWEYLRRLDAE
MLENYARFITAASAARNPSPIRTMTDILSRGPKSMISLAGGLPNPNMFPFKTAVITVENGKTIQFGEEMMKRALQYSPSAGIPELLSWLKQLQIKLHNPPTIHYPPSQGQMDLCVTSGSQQGLCKVFEMIINPGDNVLLDEPAYSGTLQSLHPLGCNIINVASDESGIVPDSLRDILSRWKPEDAKNPQKNTPKFLYTVPNGNNPTGNSLTSERKKEIYELARKYDFLIIEDDPYYFLQFNKFRVPTFLSMDVDGRVIRADSFSKIISSGLRIGFLTGPKPLIERVILHIQVSTLHPSTFNQLMISQLLHEWGEEGFMAHVDRVIDFYSNQKDAILAAADKWLTGLAEWHVPAAGMFLWIKVKGINDVKELIEEKAVKMGVLMLPGNAFYVDSSAPSPYLRASFSSASPEQMDVAFQVLAQLIKESL
MFAIQPGLAEGGQFLGDPPPGLCQPELQPDSNSNFMASAKDANENWHGMPGRVEPILRRSSSESPSDNQAFQAPGSPEEGVRSPPEGAEIPGAEPEKMGGAGTVCSPLEDNGYASSSLSIDSRSSSPEPACGTPRGPGPPDPLLPSVAQAVQHLQVQERYKEQEKEKHHVHLVMYRRLALLQWIRGLQHQLIDQQARLQESFDTILDNRKELIRCLQQRAAPSRPQDQA
PFEIVFEGAKEFAQLIDTASKLIDEAAFKVTEDGISMRAMDPSRVVLIDLNLPSSIFSKYEVVEPETIGVNLDHLKKILKRGKAKDTLILKKGEENFLEITIQGTATRTFRVPLIDVEEMEVDLPELPFTAKVVVLGEVLKAAVKAASLVSDSIKFIARENEFIMKAEGETQEVEIKLTLEDEGLLDIEVQEETKSAYGVSYLSDMVKGLGKADEVTIKFGNEMPMQMEYYIRDEGRLTFLLAPRVEE
MAHHHHHHMGTLEAQTQGPGSMENKEKIYEGKAKIIFATLNPLEVIQHFKDEITAFNNKKAAIIHEKGILNNYISSFLMKKLIDKGIKTHFISLLNQREQLVKKITIIPIEVVIRNLAAGNFSKRFQIADGTPFKSPIIEFYYKNDELSDPMVSEGHILSFQWLTNQELEKIKILSLKINNILSELFFNVGIKLVDFKLEFGKLHNDEQSDLFLADEISPDTCRLWDISTNKRLDKDRYRLNLGNVIEGYREVAHKLNAIPNL
MSLPILTIREVCNINHWGIGYYDVDDSGEIIVRPNPSQHNQTVSLQKLTEAVQQKHQARLPVLFCFPQILEHRLRDINRAFQTAREECGYKGGYCLVYPIKVNQHRRVIESLMSSGQPHGLEAGSKAELMAVLAHAGNRQTLIVCNGYKDREYIRFALMGEKLGHQVYLVIEKLSEIQMVLEEAEKLGIKPRLGVRARLASQGSGKWQSSGGEKSKFGLSASQVLQLVDILKQKNRLDCLQLLHFHLGSQLGNIRDVATGVHESARFYVELHKLGVNIRCFDVGGGLGVDYEGNRTQSDCSVNYSLNEYAATVVWGISQACLEHGLPHPTIITESGRGITAHHAVLVANVIGVERYKPRRLDAPSPEAPRVLHSMWETWTDISASREKRSLRSWIHEGQFDLADVHNQYNVGLLSLAQRAWAEQLYLNICHEVGELFNEKHRSHRTIIDELQERFADKLYVNFSLFQSLPDAWGIDQLFPVCPITGLNEPIARRAVLLDITCDSDGTIDHYIDGDGIAGTMPMPDYPEEEPPLLGFFMVGAYQEILGNMHNLFGDTATADVVVGEDGQFTVIDYDEGNTVADMLEYVYQDPKELMKRYREQIEHSDLPASQAMSFLKELEAGLNGYTYLEDEEGHHHHHH
SLPSYVVPEEPLLSAPTVAELTQAVNGAVVSGDVALREREVMGVLAAGMTADHVLERLTDGMAVITPGDRSDVVLAVASAHAAEGFPSLSCIVLNGGFQLHPAIAALVSGLRLRLPVIATALGTYDTASAAASARGLVTATSQRKIDTALELMDRHVDVAGLLAQLTI

Soluble on expression in E. coli, not soluble:
MSIAIIIGTHGAAAEQLLKTAEMILGEQSNVAYIDFVPGENAETLIEKYNDRLTGLDTSKGVLFLVDTWGGSPFNAASRIAIDKENYEVVTGVNIPMLAETFMARDDEPSFAELVAVAVETGREGVKALKAPDVKSDKPETQPAAPVPTAKAPAVALGPNDHMKIGLARIDDRLIHGQVATRWTKETNVNRIIVVSDEVAADKMRKTLLTQVAPPGVTAHVVDVEKAIRVYNNPKYANDRVMLLFTNPTDVVRLVEGGVDIKSVNIGGMAFRQGKTQVNNAVSIDEKDIEAFNKLNARGIELEVRKVSSDSRLKMMDLISKLNK
MGQELNKIGIEVLRIVSIRDREEEIMEAVDNAMKRVNIVLVTGGLGPTKDDITKQTLCKYFHTELIFSEEVFENVKRVLAGKIPMNALNKSQAMVPKDCTVINNPVGSASVSWFEKDNKVLVSMPGVPQEMTAVMTESVLPKLREKFQTDVIMHRTFLVQHYPESILAEKLEPWETALPESIKLAYLPKLGIIRLRLTGRGQNKIEVESALNDEQAKLEAILGDDIFSEEDIPLEVIVGELLKKKNLTVSTAESCTGGSIAARLTSIAGSSEYFNGGIVAYSNEVKMNLLHVSPETLEVYGAVSEQTVIEMVKGAMKALKTDCAVATSGIAGPGGGTPEKPVGTVWIAAGYKNEIRTYRQETNRGRAMNIERAGNNALLILRDLLK
MGSDKIHHHHHHMMGLPTLEQMQFQHAAAQLNALHAELIDDDRLEEWPDLFEEKCQYSVISAENHNRSLNLAAVFCDSRGMLVDRIVSLRRANIFPAHSYRHILGPTRVKSTSGQIVTTQTNYVVLMTRNDGQTSIYNSGKYVDQIDVSGAAPRFLSKTAIFDTHLIDTMMVRPI
MTRSENFILDFTHIYIDENIEQTENIVRIDCSDILGTDLYCTKEGEAEIQKRIENFSINGVHFIDSGNYHYITKIMTDKINKKFSLVLYDHHTDMQKPMVEGMTSCGDWAAQVIEQNENLEQLILVGASEADIQQINVKNQSKLITFSAEELRNNSGREKLDLIETDVPFYISIDKDILDKHYIETNWSQGHMSLGMLEHLLKFFLKDKKIIGVDICGECQIGLPFPEYIEAEEKNAETNIELYEYIGRYMGK
MTKGKGRNPGASGLDKHLKRKTHLERSQPKSRQHLGQLEKHKDHVLRAKKRKVKVRRLQEIKRAAAQRNPDEFNIGMTKAVMDVANGRMRQRRVRLVESDRKKDMQTTIEHNRRNVQYLEFKAQADQQRATELLNEEAAAALTSTAPQNKHIVFVNSEEEFRSFNPLKHFDVTPEMMRQHPAVRGRIRVLEKTVMPEEILMSGGHQIKSAAQKRKERREVQEKMRRSGADATPETRAAFVERLRAKKELKQYQFTDLLEEVKRESEATASSSKGAPGDDGEQEEAAAQDEVTRLLEWRREQERQAAIATARHVREVGQRIQRSKSLSALAKSIRKQSQGIKRQMEQRRESRFKPGATRRAR
MNIIGLDISKDTIDATLHKTNGSIHYIKFKNNDDGLKQFRLWIKGNRIRKVYIGMEATGIYYEKAADMLSSYYTVYVINPLKIKDYGKSRFNRTKTDKADSNLIADYIKRHQDTLIPYQIPKNKALQKLINLKNQLHQHQKQIKNRLHSTEEDFIRNIHQDLIDTIQDKMEQVKIAISEQIKKQTDNNHYRNLQTIPSIGKDTASVLYAQLTEKHFKTANQFVSYAGLNPAIIQSGTSVRGRGRLSRYGNRRLKSTLYMPALCAYRFNAFPKLINNLKKAGKPKMVIIVAIMRKLAKLAYYIVKTGQPYDAERHRLNQ
MCLILFALDAHPRYRLVLAANRDEFYARPTAPAAFWDDAPQVLAGRDLTAGGTWCGVTRDGRIAAVTNYRDPGAHRVGARSRGELVAGFLGGDEAPSRWLEHLQRNGHDYNGFNLIFGDGNGLHYHSNRGAAASPLSPGIHGLSNHLLDTPWPKVARGRDALARLLATADEPAVDDLFAILANRTPAPDHLLPDTGVSLDWERLLSPLFITSPTYGTRSSTVILVDRSGQCTFVERSYNGAADHPRTVEYRFEVITLEHHHHHH
MAHHHHHHMDLIQWPLPYQDELLNFYIFNDSKFVGGQNRWNLFKKKVMHHNIHVISNCYCQISLLRLSQLLNASVDDSESFLSELVSNKILNAKIDRLHGIIKFGQKKTPEVLLNNWSSQIHQILNLLEESSHLIQKERMLHEAKLKRMQLESKNMSL
